Measurements reported in publication PMC7014971.

Biological target: full-length human BRAF, wild type (insect cell-produced) (human) (UniProt P15056)
Assay: SEC-MALS

Chain of UniProt P15056 (P15056 whole entry): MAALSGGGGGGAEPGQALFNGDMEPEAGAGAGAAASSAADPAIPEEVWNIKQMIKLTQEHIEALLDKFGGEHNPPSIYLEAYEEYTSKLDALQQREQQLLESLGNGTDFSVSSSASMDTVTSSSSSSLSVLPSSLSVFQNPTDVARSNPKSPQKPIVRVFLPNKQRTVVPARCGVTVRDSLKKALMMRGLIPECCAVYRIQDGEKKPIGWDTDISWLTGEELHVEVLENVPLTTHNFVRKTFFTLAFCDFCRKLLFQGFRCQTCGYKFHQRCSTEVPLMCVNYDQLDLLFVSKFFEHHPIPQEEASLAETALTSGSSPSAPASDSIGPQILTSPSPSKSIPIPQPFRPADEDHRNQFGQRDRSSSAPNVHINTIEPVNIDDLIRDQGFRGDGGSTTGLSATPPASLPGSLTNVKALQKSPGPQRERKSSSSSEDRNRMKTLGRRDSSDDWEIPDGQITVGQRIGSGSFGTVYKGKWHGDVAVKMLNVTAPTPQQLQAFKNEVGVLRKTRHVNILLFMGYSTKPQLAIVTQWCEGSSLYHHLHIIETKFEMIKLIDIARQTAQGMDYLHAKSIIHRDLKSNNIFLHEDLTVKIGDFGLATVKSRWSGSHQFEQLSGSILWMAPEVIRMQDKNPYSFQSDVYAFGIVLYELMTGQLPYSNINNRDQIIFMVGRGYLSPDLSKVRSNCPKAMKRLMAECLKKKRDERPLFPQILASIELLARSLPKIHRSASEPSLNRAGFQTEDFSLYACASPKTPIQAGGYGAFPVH

stoichiometry N (14-3-3 dimer per BRAF): 1
Substance: insect cell-derived 14-3-3ε,ζ dimer (complex)
